Results on three molecules are retold here after article PMC5800945 (Journal of molecular biology, 2017).

Residue numbers refer to the chain shown, from its start.

B1: Fab1H (anti-Asf1 Fab, wild-type switch region) (Fab, V domains shown)
VH: EVQLVESGGGLVQPGGSLRLSCAASGFNVSYSSIHWVRQAPGKGLEWVAYIYPSSGYTSYADSVKGRFTISADTSKNTAYLQMNSLRAEDTAVYYCARSYSTKLAMDYWGQGTLVTVSS
VL: DIQMTQSPSSLSASVGDRVTITCRASQSVSSAVAWYQQKPGKAPKLLIYSASSLYSGVPSRFSGSRSGTDFTLTISSLQPEDFATYYCQQSQWYPITFGQGTKVEIK
B2: Fab1H-FNQIKG (Fab, V domains shown)
VH: B1 VH with S118F, S119N
VL: B1 VL
B3: Fab1H-VSRRLP (Fab, V domains shown)
VH: B1 VH with S118V
VL: B1 VL

The target of this experiment is histone chaperone Anti-silencing factor 1 (Asf1) (Saccharomyces cerevisiae S288c). Briefly: crystal structure.
Sequence of histone chaperone Anti-silencing factor 1 (Asf1) (Saccharomyces cerevisiae S288c) (P32447 2-154): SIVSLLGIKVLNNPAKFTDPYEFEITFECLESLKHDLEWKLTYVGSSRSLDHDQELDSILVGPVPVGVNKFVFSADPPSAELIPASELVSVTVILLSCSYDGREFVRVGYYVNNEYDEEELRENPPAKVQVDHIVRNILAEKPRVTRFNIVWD
As for B1, the binding result is on record as “binds”. As to B2, the binding result was “binds”. The same measure for B3: “binds”.
